Experimental findings from patent publication US20240382610A1 (TALLAC THERAPEUTICS, published 2024) are described below.

Experiment in all cases: SPR Biacore 8K, mAb on protein A
A general note: Surface plasmon resonance follows binding to a sensor surface in real time, without labels.

The target in assay [1] is T1, Cyno nectin-4 ECD-6His (TNT-255) (cynomolgus, UniProt Q96NY8 32-349 (human entry)).
T1 construct: entry includes the 6His tag
T1 chain: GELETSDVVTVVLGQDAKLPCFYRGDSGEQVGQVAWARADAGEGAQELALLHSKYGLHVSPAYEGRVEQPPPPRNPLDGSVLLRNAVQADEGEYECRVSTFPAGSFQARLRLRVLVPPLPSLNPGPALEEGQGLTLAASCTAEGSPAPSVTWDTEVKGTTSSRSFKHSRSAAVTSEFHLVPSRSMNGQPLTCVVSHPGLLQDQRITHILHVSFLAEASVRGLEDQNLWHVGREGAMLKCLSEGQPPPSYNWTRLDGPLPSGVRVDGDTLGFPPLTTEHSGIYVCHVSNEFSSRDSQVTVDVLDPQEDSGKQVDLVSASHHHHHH
How it is done: (§1) The running buffer was 10 mM HEPES, pH 7.4, 150 mM NaCl, 3 mM EDTA, 0.05% (v/v) Surfactant P20 (HBS-EP+). […] The nectin-4 analytes were injected in either single-cycle kinetics or multi-cycle kinetics mode at nominal starting concentrations of 300 nM or 900 nM with 3-fold serial dilutions. Association times were monitored for 120 s, and dissociation times were monitored 1800 s at 30 μL/min flow rate. The surfaces were regenerated with 10 mM glycine at pH1.7 or 75 mM phosphoric acid at pH1.6 for two pulses of 15 s at 30 μL/min flow rate.
(§2) The data were processed and analyzed with Biacore 8K Evaluation Software Version 3.0.12.15655 (Cytiva, Global Life Sciences Solutions USA LLC, Marlborough, MA). […] The responses from the nearest buffer blank injection were then subtracted from the reference subtracted data (2-1) to yield double-referenced data. These double-reference data were fit to a simple 1:1 Langmuir binding model with mass transport to determine the apparent association (ka) and dissociation rate constants (kd). The apparent equilibrium dissociation constant or affinity constant was then calculated based on their ratio as (KD=kd/ka).

Assay [2] addresses T2, Human nectin-4 ECD-6His (TNT-175) (human, UniProt Q96NY8 32-349).
T2 construct: the entry holds the extracellular domain with the C-terminal 6His tag
T2 sequence: T1 chain with A39V, V230I
As to the method:
as §1, §2

The target of assay [3] is T3, Human nectin-4-IgV-6His (TNT-252) (human, UniProt Q96NY8 32-147).
T3 construct: entry includes the 6His tag
T3 sequence: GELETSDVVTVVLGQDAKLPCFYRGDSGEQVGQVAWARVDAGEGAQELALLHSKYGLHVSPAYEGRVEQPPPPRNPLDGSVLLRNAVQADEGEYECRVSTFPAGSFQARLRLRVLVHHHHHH
How it is done: as §1, §2

The target in assay [4] is T4, Mouse nectin-4 ECD-6His (TNT-250) (mouse, UniProt Q8R007 31-347).
T4 construct: entry includes the 6His tag; also called mouse nectin-4-LCD
T4 sequence: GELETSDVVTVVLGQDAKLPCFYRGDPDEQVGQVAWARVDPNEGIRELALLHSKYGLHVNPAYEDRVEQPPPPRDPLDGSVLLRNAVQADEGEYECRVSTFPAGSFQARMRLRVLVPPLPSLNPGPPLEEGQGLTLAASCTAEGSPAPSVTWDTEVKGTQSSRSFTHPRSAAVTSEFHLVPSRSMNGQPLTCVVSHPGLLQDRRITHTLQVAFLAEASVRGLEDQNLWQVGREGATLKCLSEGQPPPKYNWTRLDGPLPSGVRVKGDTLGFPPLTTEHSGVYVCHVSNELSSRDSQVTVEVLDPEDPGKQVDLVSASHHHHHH
As to the method:
as §1, §2

Residue numbers refer to the chain shown, from its start.

The term Kd denotes the equilibrium constant for the complex coming apart. Read a low Kd as tighter binding.

B1: TNT-337 (antibody, V domains shown)
VH: EVQLVESGGGLVQPGGSLRLSCAASGFTFSNYDMSWVRQAPGKGLEWVATISSGGSYTYYVDSVKGRFTISRDNAKNSLYLQMNSLRAEDTAVYYCARQELGSYYAMDYWGQGTTVTVSS
VL: DIVMTQTPLSLPVTPGEPASISCRSSQSIVHSNANTYLEWYLQKPGQSPQLLIYKVSNRFSGVPDRFSGSGSGTDFTLKISRVEAEDVGVYYCFQGSHVPYTFGGGTKVEIKR
notes: human IgG1
For B1, the Kd in assay [1] is 0.286 µM; in assay [2], 0.217 µM; in assay [3], 0.195 µM; in assay [4], 0.318 µM.

B2: TNT-331 (antibody, V domains shown)
VH: QVHLQESGPGLVKPSETLSLTCTVSGGSIRSYYWSWIRQPAGKGLEWIGRIYTSGSTNYNPSLKSRVTMSVDTSKNRLSLKLSSVTAADTAVYYCAKENWGPSFDYWGQGTLVTVSS
VL: QSVLTQPPSVSAAPGQKVTISCSGSSSNIGNNYVSWYQQLPGTAPKLLIYDNNKRPSGIPDRFSGSKSGTSATLGITGLQTGDEADYYCGTWDTSLSSGWLFGGGTKLTVLG
notes: human IgG1
Regarding B2, the Kd in assay [1] worked out at 0.0328 µM; in assay [2], 0.0874 µM. For the same molecule, the binding result in assay [3] and in assay [4] was “no binding (tested: up to 300 or 900 nM analyte)” each time.

B3: TNT-333 (antibody, V domains shown)
VH: QVQLQESGPGLVKPSETLSLTCTISGGSISSYYWSWIRQPPGKGLEWIGYIFYIGNTNYYPSLKSRVTISVDASKNQFSLKLSSVTAADTAVYYCARSYPYWYFDLWGRGTLVTVSS
VL: B2 VL with Y50S, T94S, S98A, W100V, L101V
notes: human IgG1
Take B3: the Kd was found to be 0.00743 µM in assay [1] and 0.00618 µM in assay [2]. Moreover, the binding result in assay [3] and in assay [4] was “no binding (tested: up to 300 or 900 nM analyte)” each time.

B4: TNT-334 (antibody, V domains shown)
VH: EVQLVESGGGLVQPGGSLRLSCAASGFTFSRYWMHWVRQAPGKGLVWVSRINSDGSSSNYADSVKGRFTFSRDNAKNTLYLQMNSLRAEDTAVYFCVRDNWYFDYWGQGTLVTVSS
VL: EIVMTQSPATLPVSPGERATLSCRASQSVSINLAWYQQKPGQAPRLLIYGVSTRATGIPARFSGSGSGTEFTLTISGLQSEDFAVYYCQQYNNWPRTFGQGTKVEIKR
notes: human IgG1
For B4, the Kd in assay [1] is 0.0953 µM; in assay [2] it was 0.0715 µM; in assay [3] it was 0.0463 µM. The binding result in assay [4] is “no binding (tested: up to 300 or 900 nM analyte)”.

B5: TNT-332 (antibody, V domains shown)
VH: QVQLVQSGAEAKKPGASVRVSCKTSGYTFTNYYIHWVRQAPGQGLEWMGIINPTLDSTSYAQKFQDRVTMTRDTSTNTDYMDLSSLRFEDTAVYYCARSAGFDAFDIWGQGTMVTVSS
VL: DIQLTQSPSFLSASVGDKVTITCRASQGINSYLAWYQQKPGKAPKLLIYSASTLQGGVPSRFSGSGSGTEFTLTISNLQPADFATYCCQQLNSYPFTFGPGTKVDIKR
notes: human IgG1
For the molecule B5, the Kd in assay [1] was 0.0072 µM; in assay [2], 0.0076 µM. The binding result in assay [3] and in assay [4] was “no binding (tested: up to 300 or 900 nM analyte)” each time.

B6: TNT-335 (antibody, V domains shown)
VH: QVQLQESGPGLVKPSETLSLTCTVSGGSISSYYWSWIRQPPGKGLEWIGYIHYSGISNYNPSLKSRVAISLDTSNNHFSLKLTSLTAADTAVYFCARGSYWFDPWGQGTLVTVSS
VL: QSVLTQPPSASGTPGQRVTISCSGSSSNIGSDYIYWYQQLPGTAPKLLIYSNHQRPSGVPDRFSGSKSGTSASLAISGLRSEDEADYYCAAWEDSLSGPIFGGGTKLTVLG
notes: human IgG1
For the molecule B6, the figures for the Kd in assay [1], in assay [2] and in assay [3] were 0.00128 µM, 0.00183 µM and 0.000985 µM, respectively. In addition, the binding result in assay [4] was “no binding (tested: up to 300 or 900 nM analyte)”.

B7: TNT-336 (antibody, V domains shown)
VH: KVQLVESGGGLVQPGGSLRLSCEASGFTFSNYWMHWVRQVPGEGLVWVSRLNNGGTSTRYADSVKSRFTISRDNAKNTLYLQMNSLRAEDTAVYYCVRDWYFDLWGRGTLVTVSS
VL: QLVLTQSPSASASLGASVKLTCTLSSGHSFYAIAWHQQQPEKGPRYLMQVNSNGSHNKGDGIPDRFSGSSSGAERYLTISSLQSEDEADYYCQSWDTDIWVFGGGTKLTVLG
notes: human IgG1
Take B7: the binding result in assay [1] and in assay [4] was “no binding (tested: up to 300 or 900 nM analyte)” throughout. Moreover, the Kd in assay [2] was found to be 0.111 µM; in assay [3], 0.104 µM.
